The experiment has as its target HuMCP-1-His6 Mutant-6 (66D → 66K) (human) (UniProt P13500). Nature of the experiment: Biacore, CNTO 888 captured, MCP-1-His6 in solution.

These results are taken from patent US20100254992A1.

Chain of HuMCP-1-His6 Mutant-6 (66D → 66K) (human) (P13500 other isoform, or with tags, fused parts or gaps mutant, form in doubt): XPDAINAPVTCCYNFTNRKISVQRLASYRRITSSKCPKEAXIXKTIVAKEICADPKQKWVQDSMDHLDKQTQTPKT

The substance CNTO 888 (antibody) had a Kd of 0.037 nM, a koff of 0.000186 s⁻¹ and a kon of 5.09e+06 M⁻¹ s⁻¹.
